In article PMC9256742, “Structure and function of cancer-related developmentally regulated GTP-binding protein 1 (DRG1) is conserved between sponges and humans” (Scientific Reports, 2022):

T1: recombinant human DRG family regulatory protein 1, His-tagged (human, UniProt Q8WU90 1-426)
T1 construct: human DFRP1 (LEREPO4/ZC3H15), cDNA from a commercially available product; also called HsaDFRP1; human DFRP1
T1 sequence (looked up): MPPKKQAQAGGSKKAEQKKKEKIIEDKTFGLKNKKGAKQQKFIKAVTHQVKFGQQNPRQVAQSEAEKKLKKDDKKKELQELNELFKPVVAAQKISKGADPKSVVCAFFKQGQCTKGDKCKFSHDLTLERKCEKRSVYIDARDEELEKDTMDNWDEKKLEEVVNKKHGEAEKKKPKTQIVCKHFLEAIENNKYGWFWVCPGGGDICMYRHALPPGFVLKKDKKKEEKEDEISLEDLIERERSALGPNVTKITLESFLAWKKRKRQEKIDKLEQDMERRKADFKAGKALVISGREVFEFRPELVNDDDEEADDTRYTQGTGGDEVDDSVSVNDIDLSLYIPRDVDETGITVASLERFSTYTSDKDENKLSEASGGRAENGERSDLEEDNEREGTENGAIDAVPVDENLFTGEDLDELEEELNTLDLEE


Tests used:
[1] = target: recombinant sponge (Eunapius subterraneus) DRG family regulatory protein 1, His-tagged (Eunapius subterraneus); test: SEC; Superdex 200 Increase 10/300 GL, 10 mM phosphate buffer, 140 mM NaCl, pH 7.4, 4 °C; column calibrated with standards; fractions analysed by SDS-PAGE and anti-His Western blot
[2] = target: recombinant sponge (Eunapius subterraneus) developmentally regulated GTP-binding protein 1, His-tagged (Eunapius subterraneus)
[3] = target: T1, recombinant human DRG family regulatory …; test: cross-linking; glutaraldehyde cross-linking of a mixture of DRG1 and DFRP1 (2 ug of each), or of DFRP1 alone, in PBS, 0.125-0.5% glutaraldehyde, 30 min, room temperature (25 °C); SDS-PAGE, Coomassie; settings: both partners purified

recombinant sponge (Eunapius subterraneus) developmentally regulated GTP-binding protein 1, His-tagged (Eunapius subterraneus), sequence (main, as listed by the source): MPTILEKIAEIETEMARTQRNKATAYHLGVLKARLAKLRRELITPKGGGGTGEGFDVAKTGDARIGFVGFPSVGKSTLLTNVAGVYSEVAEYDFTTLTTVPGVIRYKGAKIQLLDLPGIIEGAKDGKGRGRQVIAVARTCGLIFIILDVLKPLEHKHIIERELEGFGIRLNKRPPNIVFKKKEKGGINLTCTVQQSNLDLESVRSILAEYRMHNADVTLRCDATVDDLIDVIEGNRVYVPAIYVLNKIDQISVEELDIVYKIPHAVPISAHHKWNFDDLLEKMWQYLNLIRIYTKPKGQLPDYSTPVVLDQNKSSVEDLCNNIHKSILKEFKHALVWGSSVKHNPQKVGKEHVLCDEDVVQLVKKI

stoichiometry N [1] | GTPase activity of EsuDRG1 (GTPase-Glo luminescence assay) with equimolar EsuDFRP1, 1.2 uM each, against EsuDRG1 alone [2] | binding result [3] | Molecule
4 | 2.5 fold | – | recombinant sponge (Eunapius subterraneus) DRG family regulatory protein 1, His-tagged (natural protein)
– | – | binds | recombinant human developmentally regulated GTP-binding protein 1, His-tagged (natural protein, UniProt Q9Y295 1-367, looked up, human DRG1, cDNA from a commercially available product; also called HsaDRG1; HsaDRG1-His) MSSTLAKIAEIEAEMARTQKNKATAHHLGLLKARLAKLRRELITPKGGGGGGPGEGFDVAKTGDARIGFVGFPSVGKSTLLSNLAGVYSEVAAYEFTTLTTVPGVIRYKGAKIQLLDLPGIIEGAKDGKGRGRQVIAVARTCNLILIVLDVLKPLGHKKIIENELEGFGIRLNSKPPNIGFKKKDKGGINLTATCPQSELDAETVKSILAEYKIHNADVTLRSDATADDLIDVVEGNRVYIPCIYVLNKIDQISIEELDIIYKVPHCVPISAHHRWNFDDLLEKIWDYLKLVRIYTKPKGQLPDYTSPVVLPYSRTTVEDFCMKIHKNLIKEFKYALVWGLSVKHNPQKVGKDHTLEDEDVIQIVKK
